# Laboratory results reported in patent KR20220013302A (dated 2022).
# Assays:
# [1] = molecular target: T1, SARS-CoV-2 바이러스 표면 단백질 (RBD) (SARS-CoV-2, UniProt P0DTC2 319-541); assay: BLI (Octet), Full IgG
# [2] = molecular target: T1, SARS-CoV-2 바이러스 표면 단백질 (RBD); assay: BLI (Octet), Full IgG culture supernatant
binder,measurement,setting,value
"No. 32 항체 (Full IgG) (antibody, V domains shown) VH: EVQLVQSGGGLIQPGGSLRLSCAASEFIVSSNYMTWVRQAPGKGLEWVSIIYPGGSTYYADSVKGRFTISRDNSKNTLYLRMNSLRAEDTAVYYCARDLPLTGTTLDYWGQGTLVTVSS VL: not shown",Kd,[1],0.305 nM
same,koff,[1],0.000193 s⁻¹
same,kon,[1],633000 M⁻¹ s⁻¹
same,Kd,[2],0.147 nM
